Data from patent US20020103152.

Test system: Sleeping Beauty transposase (SB) (synthetic construct (salmonid Tc1-like, reconstructed)?)
Experiment: cell_activity
Settings: mouse liver, pRSV-βgeo without terminal repeats; 2-4% with repeats

Substance: phAAT / pRSV-βgeo plasmids lacking terminal repeats
- activity (% of hepatocytes): < 0.01
